# Test results as given in paper PMC3506662, “The Peripheral Binding of 14-3-3γ to Membranes Involves Isoform-Specific Histidine Residues” (PLoS ONE, 2012).
# Where no end group is shown, it is not given here. [ ]: non-standard residue; d: D form. pS = N[C@@H](COP(=O)(O)O)C(=O)O
# T1: human 14-3-3γ, wild-type (human, UniProt P61981 2-247)
# T1 construct: 14-3-3 protein gamma, human; d14-3-3γ is the same protein after extensive dialysis into phosphate-free 10 mM Na-Hepes, pH 7.4; also called wt-14-3-3γ; d14-3-3γ; source: E. coli (BL-21, codon+), GST fusion purified on glutathione-Sepharose 4B, cleaved by thrombin, further purified
# T1 sequence: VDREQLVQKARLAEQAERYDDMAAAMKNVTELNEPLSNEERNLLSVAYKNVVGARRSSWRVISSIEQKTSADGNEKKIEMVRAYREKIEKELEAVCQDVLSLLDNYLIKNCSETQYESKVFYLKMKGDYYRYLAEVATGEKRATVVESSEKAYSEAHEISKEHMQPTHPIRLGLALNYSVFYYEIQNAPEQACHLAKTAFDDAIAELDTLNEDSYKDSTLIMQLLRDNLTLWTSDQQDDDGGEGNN
# Experiments:
# human 14-3-3γ, wild-type [1] = biological target: T1, human 14-3-3γ, wild-type; experiment: SPR; data not shown; Biacore 3000, 25°C; wt-d14-3-3γ immobilised by amine coupling on CM5 (about 5 000 RU); THp-(1-43) injected in 10 mM Na-Hepes, pH 7.4, 0.005% P20; 0 mM salt; settings: both partners purified
# human 14-3-3γ, wild-type [2] = biological target: T1, human 14-3-3γ, wild-type; experiment: differential scanning fluorimetry; d14-3-3γ titrated with peptide from a 0.21 mM stock; SYPRO Orange; 20 to 95°C at 2°C/min; shift of Tm fitted to equation 1; legend: 10 µM subunit in 10 mM Na-Hepes, pH 7.4, 150 mM NaCl; settings: both partners purified
binder,measurement,setting,value
"MPTPDATTPQAKGFRRAV[pS]ELDAKQAEAIMSPRFIGRRQSLIE (also called phosphopeptide; source: synthetic peptide (CPC Scientific), approx. 90% purity) [THp-(1-43), Ser19-phosphorylated N-terminal peptide of human tyrosine hydroxylase isoform 1]",Kd,"human 14-3-3γ, wild-type [1]",~220 nM
same,Kd,"human 14-3-3γ, wild-type [2]",~190 nM
